Measured values as given in US20020098537.

Assays:
[1] = biological target: T1, novel protein having inhibitory activity on the protease activity of HGF activator (HAI-I), purified from MKN45 cell culture supernatant
T1 sequence (O43278 36-529, looked up): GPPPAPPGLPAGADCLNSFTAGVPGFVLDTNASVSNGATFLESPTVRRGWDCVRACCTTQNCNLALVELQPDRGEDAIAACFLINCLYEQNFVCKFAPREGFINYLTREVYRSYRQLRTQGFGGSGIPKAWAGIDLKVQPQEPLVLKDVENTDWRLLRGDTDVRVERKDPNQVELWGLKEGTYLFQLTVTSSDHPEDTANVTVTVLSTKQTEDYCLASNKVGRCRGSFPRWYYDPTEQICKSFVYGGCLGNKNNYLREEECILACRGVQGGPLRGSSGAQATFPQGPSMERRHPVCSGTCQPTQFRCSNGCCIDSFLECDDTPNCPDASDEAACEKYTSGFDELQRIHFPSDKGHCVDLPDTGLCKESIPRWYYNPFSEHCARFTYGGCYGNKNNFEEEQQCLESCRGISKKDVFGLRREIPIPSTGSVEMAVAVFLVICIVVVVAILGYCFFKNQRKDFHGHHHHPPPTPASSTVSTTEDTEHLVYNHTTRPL

[2] = biological target: single chain HGF (hepatocyte growth factor), P14210
Sequence of single chain HGF (hepatocyte growth factor), P14210 (P14210 32-728): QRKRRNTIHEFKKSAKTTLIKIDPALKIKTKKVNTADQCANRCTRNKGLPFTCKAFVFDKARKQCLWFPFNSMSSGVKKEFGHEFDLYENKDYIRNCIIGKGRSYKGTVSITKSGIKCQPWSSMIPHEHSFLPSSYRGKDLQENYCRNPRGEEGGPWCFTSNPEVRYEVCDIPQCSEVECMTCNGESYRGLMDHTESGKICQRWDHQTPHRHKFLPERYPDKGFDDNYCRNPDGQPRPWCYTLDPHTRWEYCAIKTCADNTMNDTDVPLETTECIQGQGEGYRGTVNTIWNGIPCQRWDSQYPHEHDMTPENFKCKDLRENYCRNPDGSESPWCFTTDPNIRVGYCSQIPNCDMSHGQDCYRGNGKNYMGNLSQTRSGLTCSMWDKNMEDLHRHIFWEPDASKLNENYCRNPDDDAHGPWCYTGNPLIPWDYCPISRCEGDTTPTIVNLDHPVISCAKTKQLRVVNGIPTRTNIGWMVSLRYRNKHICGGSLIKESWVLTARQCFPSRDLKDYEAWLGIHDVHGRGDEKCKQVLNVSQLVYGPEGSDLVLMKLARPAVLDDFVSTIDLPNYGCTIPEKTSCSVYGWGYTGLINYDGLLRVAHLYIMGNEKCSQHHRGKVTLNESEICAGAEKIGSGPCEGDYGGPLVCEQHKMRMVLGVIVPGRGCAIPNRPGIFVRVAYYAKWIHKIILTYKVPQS

B1: serum-derived hepatocyte growth factor activator (HGF activator) (protein)
chain: VQLSPDLLATLPEPASPGRQACGRRHKKRTFLRPRIIGGSSSLPGSHPWLAAIYIGDSFCAGSLVHTCWVVSAAHCFSHSPPRDSVSVVLGQHFFNRTTDVTQTFGIEKYIPYTLYSVFNPSDHDLVLIRLKKKGDRCATRSQFVQPICLPEPGSTFPAGHKCQIAGWGHLDENVSGYSSSLREALVPLVADHKCSSPEVYGADISPNMLCAGYFDCKSDACQGDSGGPLACEKNGVAYLYGIISWGDGCGRLHKPGVYTRVANYVDWINDRIRPPRRLVAPS
conversion of single chain HGF to double chain HGF by HGF activator (SDS-PAGE under reducing conditions, CBB staining); 10 ng protein, 5 ng HGF activator, 10 ug single chain HGF [1]: Addition of the protein resulted in suppression of the activity of HGF activator converting single chain HGF to double chain HGF.
conversion of single chain HGF to double chain HGF (SDS-PAGE under reducing conditions, CBB staining) [2]: the activity of HGF activator converting single chain HGF to double chain HGF
